From US20160185850A1 (ESBATECH AN ALCON BIOMEDICAL RESEARCH UNIT, published 2016)
Residue numbers refer to the chain shown, from its start. Like-named read-outs stand apart in the source and are kept apart here.

What was measured:
[1] = biological target: T1, recombinant human TNFα (human, UniProt P01375 77-233); test: cell-based or functional assay
[2] = biological target: T1, recombinant human TNFα; test: cell-based or functional assay; remark: listed apart in the source
[3] = biological target: T1, recombinant human TNFα; test: ELISA dilution series on TNFα after 3 days at 37°C in human serum (column 'serum')
[4] = biological target: T1, recombinant human TNFα; test: ELISA on recombinant human TNFα
[5] = biological target: T1, recombinant human TNFα; test: ELISA dilution series on TNFα after 3 days at 37°C in assay buffer TBSTM (positive control)
[6] = biological target: T1, recombinant human TNFα; test: cell-based or functional assay; remark: listed apart in the source
[7] = biological target: T1, recombinant human TNFα; test: ELISA dilution series on TNFα after 3 days at 37°C in pig anterior chamber fluid (column 'anterior chamber fluid')
[8] = biological target: T1, recombinant human TNFα; test: surface plasmon resonance (BIACore)
[9] = biological target: T1, recombinant human TNFα; test: cell-based or functional assay; remark: listed apart in the source
[10] = biological target: T1, recombinant human TNFα; test: ELISA dilution series on TNFα after 3 days at 37°C in pig vitreous body fluid (column 'vitreous body fluid')
[11] = biological target: T1, recombinant human TNFα; test: ELISA dilution series on TNFα after 3 days at 37°C in human urine (column 'urine')
[12] = biological target: T1, recombinant human TNFα; test: ELISA on recombinant human TNFα; remark: listed apart in the source

T1 sequence (P01375 77-233 limits assumed): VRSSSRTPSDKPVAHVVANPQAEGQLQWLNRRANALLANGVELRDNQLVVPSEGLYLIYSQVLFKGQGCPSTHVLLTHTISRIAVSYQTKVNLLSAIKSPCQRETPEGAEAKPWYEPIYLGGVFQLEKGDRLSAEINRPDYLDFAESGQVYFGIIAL

B1: TB-A Fab antibody (Fab, V domains shown)
VH: QVQLVQSGAEVKKPGASVKVSCTASGYTFTHYGMNWVRQAPGKGLEWMGWINTYTGEPTYADKFKDRFTFSLETSASTVYMELTSLTSDDTAVYYCARERGDAMDYWGQGTLVTVSS
VL: DIVMTQSPSSLSASVGDRVTLTCTASQSVSNDVVWYQQRPGKAPKLLIYSAFNRYTGVPSRFSGRGYGTDFTLTISSLQPEDVAVYYCQQDYNSPRTFGQGTKLEVKR
- IC50 in the L929 assay, Fab format relative to scFv format of TB-A [1]: ~2 fold (IC50 Fab / IC50 scFv)
- IC50, inhibition of human TNFα-induced cytotoxicity in mouse L929 fibroblasts [2]: 0.0659 µg/mL

B2: TB-A (scFv)
scFv: DIVMTQSPSSLSASVGDRVTLTCTASQSVSNDVVWYQQRPGKAPKLLIYSAFNRYTGVPSRFSGRGYGTDFTLTISSLQPEDVAVYYCQQDYNSPRTFGQGTKLEVKRGGGGSGGGGSGGGGSGGGGSQVQLVQSGAEVKKPGASVKVSCTASGYTFTHYGMNWVRQAPGKGLEWMGWINTYTGEPTYADKFKDRFTFSLETSASTVYMELTSLTSDDTAVYYCARERGDAMDYWGQGTLVTVSS
notes: also called TB-A scFv; TB-A scFv antibody
- Kd [3]: 3.62 nM
- EC50 (read off the curve) [4]: ~3 nM
- Kd [5]: 3.39 nM
- IC50, inhibition of human TNFα-induced cytotoxicity in mouse L929 fibroblasts [6]: 0.0144 µg/mL
- Kd [7]: 2.97 nM
- IC50, inhibition of human TNFα-induced cytotoxicity in mouse L929 fibroblasts [2]: 0.0297 µg/mL
- Kd [8]: 0.8 nM
- koff [8]: 0.00044 s⁻¹
- kon [8]: 500000 M⁻¹ s⁻¹
- Relative potency: EC50X/EC50TB-A, KYM-1 cells [9]: 1 ratio EC50X/EC50TB-A
- Relative potency: EC50X/EC50TB-A, L929 cells [9]: 1 ratio EC50X/EC50TB-A
- Kd [10]: 3.18 nM
- Kd [11]: 4.14 nM

B3: TB-BA (scFv)
scFv (VL of TB-B - (GGGGS)4 linker - VH of TB-A): B2 scFv with M4L, L46R, R65S, Y67S, D70E
notes: Domain-shuffled variant: VL domain of TB-B with VH domain of TB-A
- EC50 (read off the curve) [4]: ~700 nM

B4: TB-AB (scFv)
scFv (VL of TB-A - (GGGGS)4 linker - VH of TB-B): B2 scFv with T156S, K171Q, F196V, F198L, S199T, L200R, E201D, A204I, S205G
notes: Domain-shuffled variant: VL domain of TB-A with VH domain of TB-B
- EC50 (read off the curve) [4]: ~3 nM

B5: TB-A L_R65S (scFv)
scFv: B2 scFv with R65S
notes: also called TB-A L65
- binding result [12]: binds

B6: TB-wt (scFv)
scFv: DIVMTQTPKFLLVSAGDRVTITCTASQSVSNDVVWYQQKPGQSPKMLMYSAFNRYTGVPDRFTGRGYGTDFTFTISSVQAEDLAVYFCQQDYNSPRTFGGGTKLEIKRGGGGSGGGGSGGGGSGGGGSQIQLVQSGPELKKPGETVKISCKASGYTFTHYGMNWVKQAPGKGLKWMGWINTYTGEPTYADDFKEHFAFSLETSASTVFLQINNLKNEDTATYFCARERGDAMDYWGQGTSVTVSS
- IC50, inhibition of human TNFα-induced cytotoxicity in mouse L929 fibroblasts [6]: 0.161 µg/mL
